What was measured:
[1] = target: T1, human CD269 (BCMA) on human multiple myeloma cells (MM.1S, RPMI-8226) (human, UniProt Q02223 1-184); assay: flow cytometry on MM.1S cells
T1 construct: whole, on cells; also called BCMA-positive MM.1S cells; CD269-positive MM.1S cells
T1 sequence (looked up): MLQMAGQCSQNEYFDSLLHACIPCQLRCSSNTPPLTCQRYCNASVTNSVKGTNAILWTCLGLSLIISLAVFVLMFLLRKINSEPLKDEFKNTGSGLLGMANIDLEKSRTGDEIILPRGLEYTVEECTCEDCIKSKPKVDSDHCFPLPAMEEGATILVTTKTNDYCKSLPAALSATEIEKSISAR

[2] = target: T2, extracellular domain of human CD269 (BCMA, TNFRSF17) (human, UniProt Q02223 4-54); assay: ELISA of hybridoma J22.9 supernatant on BCMA-coated microtiter plates at the given days of culture
T2 construct: also called hBCMA; human BCMA
T2 sequence: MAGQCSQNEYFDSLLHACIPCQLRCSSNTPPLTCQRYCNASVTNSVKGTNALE

[3] = target: T2, extracellular domain of human CD269 …; assay: SPR, IgG immobilised, human BCMA in mobile phase (n = 3)
Protocol: (§1) FIG. 12: SPR raw data: Binding affinities of the chimeric J22.9-xi and humanized variants to human (A) and cynomolgus (B) BCMA was measured by Surface Plasmon Resonance (SPR) Spectrometry. IgGs were immobilized via amine chemistry to a Proteon GLH sensor chip and binding measured with BCMA in the mobile phase. The order of raw data traces in the graph corresponds to the order to samples listed in the legend of the figure.
(§2) SPR was performed on a ProteonXPR36 using phosphate buffered saline supplemented with 0.005% Tween-20 (PBST). Whole IgG at a concentration of 15 ug/ml was immobilized to a Proteon GLH sensor chip using standard amine chemistry according to the manufacturer's instructions. For binding experiments, human or cynomolgus BCMA in PBST was used as the mobile phase.

[4] = target: T3, extracellular domain of cynomolgous BCMA (cynomolgus, UniProt A0A2K5UD97 1-53); assay: SPR, IgG immobilised, cynomolgus BCMA in mobile phase (n = 2)
T3 construct: extracellular domain; also called cyBCMA; cynoBCMA
Protocol: as §1, §2

[5] = target: T2, extracellular domain of human CD269 …; assay: ELISA on plates coated with human BCMA (1 ug/ml), % of max
Protocol: (§3) ELISA was carried out as described herein using BCMA-coated microtiter plates (1 microg/ml).
(§4) Microtiter plates were coated with 1 μg/ml of the extracellular domain of human or cynomolgous BCMA (hBCMA or cyBCMA, respectively). Coated BCMA was detected with serial dilution of J22.9-xi, J22.9-H, J22.9-ISY and J22.9-FSY ranging from 0.26 pM to 500 nM. Binding of antibodies to the coated BCMA was detected with horseradish peroxidase (HRP)-conjugated goat anti-human secondary antibody (Jackson ImmunoResearch, 109-035-098, dilution 1:5,000).

[6] = target: T3, extracellular domain of cynomolgous BCMA; assay: ELISA on plates coated with cynomolgus BCMA (1 ug/ml), % of max
Protocol: as §3, §4

[7] = target: T2, extracellular domain of human CD269 …; assay: SPR, value printed beside the trace for 90.0 nM BCMA; neither a quantity name nor a unit is printed, and the five values average to the mean Kd of 54 pM of paragraph 196
[8] = target: T2, extracellular domain of human CD269 …; assay: SPR; mean Kd of FIG. 1c, initial SPR characterisation (not the n = 3 series of Table 6)
[9] = target: T2, extracellular domain of human CD269 …; assay: SPR, value printed beside the trace for 3.3 nM BCMA; neither a quantity name nor a unit is printed, and the five values average to the mean Kd of 54 pM of paragraph 196
[10] = target: T2, extracellular domain of human CD269 …; assay: SPR, value printed beside the trace for 30.0 nM BCMA; neither a quantity name nor a unit is printed, and the five values average to the mean Kd of 54 pM of paragraph 196
[11] = target: T2, extracellular domain of human CD269 …; assay: SPR, value printed beside the trace for 10.0 nM BCMA; neither a quantity name nor a unit is printed, and the five values average to the mean Kd of 54 pM of paragraph 196
[12] = target: T2, extracellular domain of human CD269 …; assay: SPR, value printed beside the trace for 1.1 nM BCMA; neither a quantity name nor a unit is printed, and the five values average to the mean Kd of 54 pM of paragraph 196
[13] = target: T2, extracellular domain of human CD269 …; assay: complex isolated by size exclusion chromatography and crystallised
Protocol: (Fab)₂ fragments were generated from full length J22.9-xi IgG by incubation with pepsin. J22.9-xi was passed over a PD-10 buffer exchange column into 50 mM sodium acetate, pH 3.5 and pepsin added at 30 μg per milligram J22.9-xi. Incubation at 37° C. for 2.5 hours was sufficient to completely digest the fragment crystallizable (Fc) region and pepsin was inactivated by exchange over a PD-10 column into PBS (pH 7.2). The reduction of the (Fab)₂ fragments to individual Fabs was accomplished in PBS by addition of 2-Mercaptoethylamine (50 mM) in the presence of 5 mM ethylenediaminetetraacetic acid (EDTA). After incubation for 90 minutes at 37° C., the reduced cysteines were blocked by alkylation with 500 μM iodoacetamide for 30 minutes followed by buffer exchange into fresh PBS. The Fab fragments were combined with 1.5 molar equivalents of purified BCMA and the complexes isolated by size exclusion chromatography on a Superdex 75 16/60 column.
Concentrated complexes were supplemented with 0.5 molar equivalents of pure BCMA to ensure saturation and were subjected to crystallization screening. Initial Fab:BCMA crystallization conditions were identified from commercial screens (Qiagen) in 96-well sitting drop format plates using a Gryphon pipetting robot (200 nl drops) and optimized in 24 well plates in hanging drops (2-3 ul). […]

T3 sequence (A0A2K5UD97 entry or part of it): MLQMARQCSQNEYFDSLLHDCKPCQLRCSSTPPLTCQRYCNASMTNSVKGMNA

B1: J22.9-xi-N-glycan (deglycosylated J22.9-xi) (antibody, human IgG1, V domains shown)
VH: QVQLQQSGGGLVQPGGSLKLSCAASGIDFSRYWMSWVRRAPGKGLEWIGEINPDSSTINYAPSLKDKFIISRDNAKNTLYLQMSKVRSEDTALYYCASLYYDYGDAMDYWGQGTSVTVSS
VL: DIVMTQSQRFMTTSVGDRVSVTCKASQSVDSNVAWYQQKPRQSPKALIFSASLRFSGVPARFTGSGSGTDFTLTISNLQSEDLAEYFCQQYNNYPLTFGAGTKLELKR
modifications: N-linked oligosaccharide chains at Asn297 of the heavy chain removed with PNGase F
notes: also called J22.9-xi without N-glycans
B1: binds [1].

B2: antibody in the supernatant of mouse hybridoma J22.9 (antibody, V domains shown)
VH: B1 VH
VL: B1 VL
notes: Mouse antibody; also called hybridoma J22.9 supernatant
B2: binds [2].

B3: chimeric antibody J22.9-xi (antibody, V domains shown)
VH: B1 VH
VL: B1 VL
notes: Full length IgG made in 293-6E cells
For B3, the Kd [3] was 280 pM, the Kd [4] was 2700 pM and the “EC50 (read off the curve)” value [5] was ~200 pM. The “EC50 (read off the curve)” value [6] was ~200 pM, the Kd [7] was 88 pM and the Kd [8] was 54 pM. For the same binder, the Kd [9] was 36.2 pM, the Kd [10] was 69.5 pM and the Kd [11] was 55.5 pM. The Kd [12] was 21 pM.

B4: Fab fragment prepared from J22.9-xi (Fab, V domains shown)
VH: B1 VH
VL: B1 VL
modifications: reduced cysteines blocked by alkylation with iodoacetamide
notes: also called J22.9-xi Fab
B4: binds [13].

From patent publication US20170166649A1 (MAX DELBR CK CENTRUM F R MOLEKULARE MEDIZIN IN DER …, published 2017)
